From patent publication US20200231694A1, “PHARMACEUTICAL COMBINATIONS COMPRISING AN ANTI-BST-1 ANTIBODY AND A CYTIDINE ANALOGUE” (BERLIN-CHEMIE AG, priority 2017, published 2020)

T1: ADP-ribosyl cyclase 2 (CD157; BST1) (human, UniProt Q10588 33-293)
T1 construct: Endogenous lipid-anchored BST1 on human cell lines (A549, H226, U937) and on AML patient blasts; also called Bone marrow stromal antigen 1; cell-surface human BST1
T1 sequence: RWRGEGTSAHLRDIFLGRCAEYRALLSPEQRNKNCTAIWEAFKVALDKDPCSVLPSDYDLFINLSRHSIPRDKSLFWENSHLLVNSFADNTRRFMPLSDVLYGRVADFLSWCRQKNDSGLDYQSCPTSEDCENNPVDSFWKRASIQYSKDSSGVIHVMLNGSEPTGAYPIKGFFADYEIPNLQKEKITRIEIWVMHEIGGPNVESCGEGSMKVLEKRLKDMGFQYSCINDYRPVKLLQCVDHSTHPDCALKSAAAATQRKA

T2: cell surface BST1 protein (Homo sapiens, UniProt Q10588)
T2 construct: the antibodies were incubated with the BST1-expressing cells, A549 and H226, from human lung adenocarcinoma and human lung squamous carcinoma; endogenous in cells; host or cells: A549 (human lung adenocarcinoma) and H226 (human lung squamous carcinoma)
T2 sequence (Q10588 33-293): T1 sequence

B1: BST1_A3 (Fab, V domains shown)
VH: QVQLQQSRAELVMPGASVKMSCKTSGYTFSDYWVHWVRQRPGQGLEWIGAIDGSDTFNDYSQKFKGRATLTVDESSSTVYMQLSSLTSEDSAVYYCARGGLLQYWGQGTTLTVSS
VL: DIQLTQSPASLSASVGETVTITCRASENIYSYLAWYQQKQGKSPQLLVYNTKTLGEGVPSRFSGSGSGTQFSLKINSLQPEDFGSYYCQHHYGTPFTFGSGTKLEIKR
B2: BST1_A1 (Fab, V domains shown)
VH: QVKLQQSGAELVRPGSSVKISCKASGYAFSNSWINWVKQRPGQGLEWIGQIYPGDYDTNYNGKFKGKATLTADYSSSTAYMQLNSLTSEDSAVYFCARGGSIYYGNLGFFDVWGAGTTVTVSS
VL: EMVLTQSPAIMSTSLGERVTMTCTASSRVSSSYLHWYQQKPGSSPKLWIYSTSNLASGVPARFSGSGSGTSYSLTISSMEAEDAATYYCHQYHRSPYTFGGGTKLEIKR
notes: also called anti-BST1 monoclonal antibody BST1_A1
B3: BST1_A1: anti-BST1 monoclonal antibody, VH SEQ ID NO: 1, VK SEQ ID NO: 3, murine VH 1-80 / VK 4-74 (antibody, listed as Mus musculus)
heavy: MKQSTIALALLPLLFTPVAKAQVKLQQSGAELVRPGSSVKISCKASGYAFSNSWINWVKQRPGQGLEWIGQIYPGDYDTNYNGKFKGKATLTADYSSSTAYMQLNSLTSEDSAVYFCARGGSIYYGNLGFFDVWGAGTTVTVSSAKTTPPSVYPLAPGSAAQTNSMVTLGCLVKGYFPEPVTVTWNSGSLSSGVHTFPAVLQSDLYTLSSSVTVPSSTWPSETVTCNVAHPASSTKVDKKIVPRDCHHHHHHH
light: MKYLLPTAAAGLLLLAAQPAMAEMVLTQSPAIMSTSLGERVTMTCTASSRVSSSYLHWYQQKPGSSPKLWIYSTSNLASGVPARFSGSGSGTSYSLTISSMEAEDAATYYCHQYHRSPYTFGGGTKLEIKRADAAPTVSIFPPSSEQLTSGGASVVCFLNNFYPKDINVKWKIDGSERQNGVLNSWTDQDSKDSTYSMSSTLTLTKDEYERHNSYTCEATHKTSTSPIVKSFNRNES
B4: BST_A3: anti-BST1 monoclonal antibody, VH SEQ ID NO: 52, VK SEQ ID NO: 53 (antibody, listed as Mus musculus)
heavy: MKQSTIALALLPLLFTPVAKAQVQLQQSRAELVMPGASVKMSCKTSGYTFSDYWVHWVRQRPGQGLEWIGAIDGSDTFNDYSQKFKGRATLTVDESSSTVYMQLSSLTSEDSAVYYCARGGLLQYWGQGTTLTVSSAKTTPPSVYPLAPGSAAQTNSMVTLGCLVKGYFPEPVTVTWNSGSLSSGVHTFPAVLQSDLYTLSSSVTVPSSTWPSETVTCNVAHPASSTKVDKKIVPRDCHHHHHHH
light: MKYLLPTAAAGLLLLAAQPAMADIQLTQSPASLSASVGETVTITCRASENIYSYLAWYQQKQGKSPQLLVYNTKTLGEGVPSRFSGSGSGTQFSLKINSLQPEDFGSYYCQHHYGTPFTFGSGTKLEIKRADAAPTVSIFPPSSEQLTSGGASVVCFLNNFYPKDINVKWKIDGSERQNGVLNSWTDQDSKDSTYSMSSTLTLTKDEYERHNSYTCEATHKTSTSPIVKSFNRNES
B5: BST1_A2 (murine, as selected in Example 2) (Fab, V domains shown)
VH: QAYLQQSGPELVKAGASVKMSCKASGYSFIEYTINWVKQSHGKSLEWIGNIDPYYGTTYYNQMFTGKATLTVDQSSNTAYMQLKSLTSEDSAVYFCARGSAWFPYWGQGTLVTVSA
VL: DIVMSQSPAIMSASPGEKVTMTCSASSSVTYMYWYQQKPGSSPRLLIYDTSNLASGVPVRFSGSGSGTSYSLTISRMEAEDTATYYCQQWSNYPLTFGAGTKLELKR
notes: also called anti-BST1 monoclonal antibody BST1_A2

Experiments:
[1] = target: T1, ADP-ribosyl cyclase 2 (CD157; BST1); experiment: flow cytometry on BST1-expressing H226 and A549 cells, PE-labelled secondary antibody, geometric mean fluorescence; single antibody dilution, concentration not given
Protocol: (§1) The specificity of antibodies against the BST1 selected in Example 2 was tested by flow cytometry. To test the ability of the antibodies to bind to the cell surface BST1 protein, the antibodies were incubated with the BST1-expressing cells, A549 and H226, from human lung adenocarcinoma and human lung squamous carcinoma, respectively. Cells were washed in FACS buffer (DPBS, 2% FBS), centrifuged and resuspended in 100 μl of the diluted primary BST1 antibody (also diluted in FACS buffer). The antibody-A549 complex was incubated on ice for 60 min and then washed twice with FACS buffer as described above. The cell-antibody pellet was resuspended in 100 μl of the diluted secondary antibody (also diluted in FACS buffer) and incubated on ice for 60 min on ice. The pellet was washed as before and resuspended in 200 μl FACS buffer. The samples were loaded onto the BD FACScanto II flow sytometer and the data analyzed using the BD FACSdiva software.

[2] = target: T2, cell surface BST1 protein; experiment: Flow cytometry binding of anti-BST1 antibodies to BST1-expressing cells; settings: A549 and H226 cells
Protocol: as §1

A549 cells = experiment: MabZAP internalization assay, A549 cells; format: cell-based; settings: compared to anti-human IgG isotype control
Protocol: (§2) Internalization of BST1_A1 and BST1_A2 by H226 and A549 were investigated using a MabZap assay. […] (Advanced Targeting System, San Diego, Calif., IT-22-100). First, BST1 Fab was bound to the surface of the cells. Then, the MabZAP antibodies were bound to the primary antibodies. Next, the MabZAP complex was internalized by the cells.
(§3) The MabZAP assay was conducted as follows. Each of the cells was seeded at a density of 5×10^3 cells per well. The anti-BST1 monoclonal antibody or an isotype control human IgG was serially diluted then added to the cells and incubated for 15 min at 25° C. The MabZAP was then added and incubated for 72 hr at 37° C. Cell viability in the plates was detected by CellTiter-Glo® Luminescent Cell Viability Assay kit (Promega, G7571) and the plates were read and analysed using Promega Glomax. Cell death was proportional to the concentration of anti-BST1 monoclonal antibodies.

H226 cells = experiment: MabZAP internalization assay, H226 cells; format: cell-based; settings: compared to anti-human IgG isotype control
Protocol: as §2, §3

Molecule	binding result [1]	binding to cell-surface human BST1 [2]	internalization (MabZAP) (A549 cells)	internalization (MabZAP) (H226 cells)
B1	binds			
B2	binds			
B3		bound effectively	efficiently internalized	efficiently internalized
B4		bound effectively		
B5	binds			
